The record followed here is publication PMC3936715, “Structural and functional analysis of the three MIF4G domains of nonsense-mediated decay factor UPF2” (Nucleic Acids Research, 2013).

The chains are these.
B2: UPF2 MIF4G-3 domain (residues 761–1054) (domain or fragment, human, UniProt Q9HAU5 761-1054, looked up)
chain: EKTVKKKRPPLQEYVRKLLYKDLSKVTTEKVLRQMRKLPWQDQEVKDYVICCMINIWNVKYNSIHCVANLLAGLVLYQEDVGIHVVDGVLEDIRLGMEVNQPKFNQRRISSAKFLGELYNYRMVESAVIFRTLYSFTSFGVNPDGSPSSLDPPEHLFRIRLVCTILDTCGQYFDRGSSKRKLDCFLVYFQRYVWWKKSLEVWTKDHPFPIDIDYMISDTLELLRPKIKLCNSLEESIRQVQDLEREFLIKLGLVNDKDSKDSMTEGENLEEDEEEEEGGAETEEQSGNESEVNE
notes: UPF2, human, Q9HAU5, MIF4G-3 construct, residues 761-1054; Limits are printed for the construct 'which we used as substrate in our assays'; also called MIF4G domain 3

In experiment [1] the target is B2. In words: SPR; competition: SMG1 immobilised; MIF4G-3 at constant 50 nM injected with 0, 50, 250, 500 nM UPF3b RRM domain. As to conditions: both partners purified.
In experiment [2] the target is T1, SMG1 (full-length recombinant, wild-type, N-terminal SBP-tag) (UniProt Q96Q15 1-3661).
T1 construct: SMG1, serine/threonine-protein kinase of the PIKK family, about 415 kDa, full-length, wild type; also called SMG1 kinase; wild-type SMG1; source: recombinant, purified; not shown: SBP, N-terminal, kept
In words: SPR; SMG1 immobilised via its N-terminal SBP-tag on a streptavidin (SA) chip, ~2000 RU, BIAcore 3000; analyte titrated at 25 µl/min; apparent KD from RUmax against concentration, one binding site model. As to conditions: both partners purified. On the technique in general: In SPR one partner is held on a chip, and binding of the other changes the refractive index at the surface.

T1 sequence (Q96Q15 whole entry): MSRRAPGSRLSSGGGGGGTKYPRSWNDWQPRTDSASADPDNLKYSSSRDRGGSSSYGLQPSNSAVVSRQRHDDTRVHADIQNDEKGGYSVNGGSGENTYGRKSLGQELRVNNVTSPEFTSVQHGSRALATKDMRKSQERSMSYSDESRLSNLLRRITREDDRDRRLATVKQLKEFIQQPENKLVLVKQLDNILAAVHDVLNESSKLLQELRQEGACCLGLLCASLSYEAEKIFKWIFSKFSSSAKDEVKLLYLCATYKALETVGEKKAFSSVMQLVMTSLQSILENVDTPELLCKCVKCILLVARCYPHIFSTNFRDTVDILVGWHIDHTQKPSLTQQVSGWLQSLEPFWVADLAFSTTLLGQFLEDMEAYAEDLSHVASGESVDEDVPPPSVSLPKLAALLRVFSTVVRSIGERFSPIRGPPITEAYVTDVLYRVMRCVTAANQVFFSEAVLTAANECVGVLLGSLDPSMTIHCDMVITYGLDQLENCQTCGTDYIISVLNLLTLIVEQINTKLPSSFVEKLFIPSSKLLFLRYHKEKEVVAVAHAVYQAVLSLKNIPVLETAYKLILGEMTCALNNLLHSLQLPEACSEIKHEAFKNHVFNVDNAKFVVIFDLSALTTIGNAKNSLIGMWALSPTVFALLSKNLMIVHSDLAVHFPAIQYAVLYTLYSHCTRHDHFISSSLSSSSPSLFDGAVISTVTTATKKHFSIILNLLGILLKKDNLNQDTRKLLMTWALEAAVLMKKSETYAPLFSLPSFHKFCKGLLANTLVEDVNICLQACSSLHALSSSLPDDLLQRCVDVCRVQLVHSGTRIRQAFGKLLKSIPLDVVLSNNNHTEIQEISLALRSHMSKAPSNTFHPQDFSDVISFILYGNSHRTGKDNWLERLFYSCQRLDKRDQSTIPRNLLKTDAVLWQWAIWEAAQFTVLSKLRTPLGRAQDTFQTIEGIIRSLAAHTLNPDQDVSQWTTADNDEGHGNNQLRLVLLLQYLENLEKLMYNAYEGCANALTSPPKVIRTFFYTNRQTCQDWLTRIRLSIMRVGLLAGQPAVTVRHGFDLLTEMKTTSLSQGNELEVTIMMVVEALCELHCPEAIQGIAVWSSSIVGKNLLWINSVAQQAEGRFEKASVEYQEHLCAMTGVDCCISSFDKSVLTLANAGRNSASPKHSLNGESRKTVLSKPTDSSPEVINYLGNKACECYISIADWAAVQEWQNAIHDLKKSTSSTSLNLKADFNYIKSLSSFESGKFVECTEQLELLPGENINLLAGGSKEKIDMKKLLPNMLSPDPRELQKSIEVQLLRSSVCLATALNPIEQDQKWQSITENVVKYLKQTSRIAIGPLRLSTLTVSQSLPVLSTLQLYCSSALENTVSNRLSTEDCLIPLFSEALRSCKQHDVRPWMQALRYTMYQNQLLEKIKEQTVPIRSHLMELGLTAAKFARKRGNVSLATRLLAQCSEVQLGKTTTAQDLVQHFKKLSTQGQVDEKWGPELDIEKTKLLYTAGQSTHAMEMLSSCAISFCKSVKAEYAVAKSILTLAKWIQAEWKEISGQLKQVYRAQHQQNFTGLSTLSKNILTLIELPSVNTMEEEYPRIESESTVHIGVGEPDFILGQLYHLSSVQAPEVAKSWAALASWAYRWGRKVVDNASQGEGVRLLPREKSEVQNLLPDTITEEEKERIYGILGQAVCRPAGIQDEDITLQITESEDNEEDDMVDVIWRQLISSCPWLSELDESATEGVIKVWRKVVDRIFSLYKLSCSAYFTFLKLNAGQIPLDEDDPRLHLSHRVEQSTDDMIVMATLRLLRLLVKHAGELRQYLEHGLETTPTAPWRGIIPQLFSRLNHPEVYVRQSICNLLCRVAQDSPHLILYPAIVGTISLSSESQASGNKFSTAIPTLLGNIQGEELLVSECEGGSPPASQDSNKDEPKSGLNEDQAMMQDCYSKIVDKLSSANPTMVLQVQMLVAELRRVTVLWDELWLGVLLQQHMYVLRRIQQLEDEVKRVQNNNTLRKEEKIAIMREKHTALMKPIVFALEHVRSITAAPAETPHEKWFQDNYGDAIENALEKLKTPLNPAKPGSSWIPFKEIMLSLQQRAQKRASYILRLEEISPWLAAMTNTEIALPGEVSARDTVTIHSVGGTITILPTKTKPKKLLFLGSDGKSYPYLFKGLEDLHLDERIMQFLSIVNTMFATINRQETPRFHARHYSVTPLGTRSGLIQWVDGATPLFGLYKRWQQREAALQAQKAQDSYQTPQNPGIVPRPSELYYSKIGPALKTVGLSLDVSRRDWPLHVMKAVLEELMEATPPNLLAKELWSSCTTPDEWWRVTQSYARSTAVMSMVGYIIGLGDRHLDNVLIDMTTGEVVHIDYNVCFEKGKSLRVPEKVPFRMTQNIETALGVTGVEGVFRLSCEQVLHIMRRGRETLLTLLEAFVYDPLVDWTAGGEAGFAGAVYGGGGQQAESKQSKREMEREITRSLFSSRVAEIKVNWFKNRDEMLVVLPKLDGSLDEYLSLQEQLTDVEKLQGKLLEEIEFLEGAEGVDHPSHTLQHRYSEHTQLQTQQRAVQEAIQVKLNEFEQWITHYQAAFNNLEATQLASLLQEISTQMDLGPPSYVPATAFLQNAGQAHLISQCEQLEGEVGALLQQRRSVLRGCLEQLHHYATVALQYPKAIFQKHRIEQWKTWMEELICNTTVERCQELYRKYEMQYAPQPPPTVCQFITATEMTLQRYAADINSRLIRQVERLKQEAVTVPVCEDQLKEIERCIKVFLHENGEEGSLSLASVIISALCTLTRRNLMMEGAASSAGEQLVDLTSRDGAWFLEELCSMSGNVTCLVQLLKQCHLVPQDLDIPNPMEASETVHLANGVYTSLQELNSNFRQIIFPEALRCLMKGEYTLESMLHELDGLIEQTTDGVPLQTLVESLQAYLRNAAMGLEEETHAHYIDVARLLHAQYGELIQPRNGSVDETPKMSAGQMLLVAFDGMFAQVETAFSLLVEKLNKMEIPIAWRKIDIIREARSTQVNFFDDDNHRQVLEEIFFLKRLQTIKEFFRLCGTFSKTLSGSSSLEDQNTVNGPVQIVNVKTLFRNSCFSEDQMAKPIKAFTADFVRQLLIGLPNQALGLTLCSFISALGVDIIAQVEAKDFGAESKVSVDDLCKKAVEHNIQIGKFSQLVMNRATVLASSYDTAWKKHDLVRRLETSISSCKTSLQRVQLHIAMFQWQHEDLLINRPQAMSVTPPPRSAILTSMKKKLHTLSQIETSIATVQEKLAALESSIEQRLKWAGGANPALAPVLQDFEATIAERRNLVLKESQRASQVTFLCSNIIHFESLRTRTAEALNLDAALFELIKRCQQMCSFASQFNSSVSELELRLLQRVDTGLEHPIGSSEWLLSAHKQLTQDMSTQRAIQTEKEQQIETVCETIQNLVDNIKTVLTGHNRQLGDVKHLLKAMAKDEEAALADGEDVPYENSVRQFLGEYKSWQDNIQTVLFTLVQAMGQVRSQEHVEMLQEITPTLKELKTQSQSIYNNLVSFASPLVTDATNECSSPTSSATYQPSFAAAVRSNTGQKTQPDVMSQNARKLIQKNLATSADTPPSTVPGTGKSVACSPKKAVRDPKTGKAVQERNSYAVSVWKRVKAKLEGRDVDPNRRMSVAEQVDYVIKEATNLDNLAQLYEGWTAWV

B1: UPF3b RRM domain (residues 42–143) (domain or fragment, UniProt Q9BZI7 42-143, looked up)
chain: RNKEKKEALSKVVIRRLPPTLTKEQLQEHLQPMPEHDYFEFFSNDTSLYPHMYARAYINFKNQEDIILFRDRFDGYVFLDNKGQEYPAIVEFAPFQKAAKKK
notes: UPF3b, RRM domain, residues 42-143; also called UPF3b RNP domain
With B1, the binding result in experiment [1] is listed as “binds”.

B2: the Kd in experiment [2] is 60 ± 5 nM.

B3: preformed UPF2 MIF4G-3/UPF3b complex (complex)
chain 1: EKTVKKKRPPLQEYVRKLLYKDLSKVTTEKVLRQMRKLPWQDQEVKDYVICCMINIWNVKYNSIHCVANLLAGLVLYQEDVGIHVVDGVLEDIRLGMEVNQPKFNQRRISSAKFLGELYNYRMVESAVIFRTLYSFTSFGVNPDGSPSSLDPPEHLFRIRLVCTILDTCGQYFDRGSSKRKLDCFLVYFQRYVWWKKSLEVWTKDHPFPIDIDYMISDTLELLRPKIKLCNSLEESIRQVQDLEREFLIKLGLVNDKDSKDSMTEGENLEEDEEEEEGGAETEEQSGNESEVNE
chain 2: RNKEKKEALSKVVIRRLPPTLTKEQLQEHLQPMPEHDYFEFFSNDTSLYPHMYARAYINFKNQEDIILFRDRFDGYVFLDNKGQEYPAIVEFAPFQKAAKKK
notes: UPF2, human, Q9HAU5, MIF4G-3 construct, residues 761-1054; UPF3b, RRM domain, residues 42-143; also called UPF2 MIF4G-3 in complex with UPF3b; UPF2/UPF3b
On to B3, for which the Kd in experiment [2] came out at 34 ± 2 nM.

B4: UPF2 (121–1227), all three MIF4G domains and the UPF1 binding domain (domain or fragment, human, UniProt Q9HAU5 121-1227, looked up)
chain: MKEKEESIQLHQEAWERHHLRKELRSKNQNAPDSRPEENFFSRLDSSLKKNTAFVKKLKTITEQQRDSLSHDFNGLNLSKYIAEAVASIVEAKLKISDVNCAVHLCSLFHQRYADFAPSLLQVWKKHFEARKEEKTPNITKLRTDLRFIAELTIVGIFTDKEGLSLIYEQLKNIINADRESHTHVSVVISFCRHCGDDIAGLVPRKVKSAAEKFNLSFPPSEIISPEKQQPFQNLLKEYFTSLTKHLKRDHRELQNTERQNRRILHSKGELSEDRHKQYEEFAMSYQKLLANSQSLADLLDENMPDLPQDKPTPEEHGPGIDIFTPGKPGEYDLEGGIWEDEDARNFYENLIDLKAFVPAILFKDNEKSCQNKESNKDDTKEAKESKENKEVSSPDDLELELENLEINDDTLELEGGDEAEDLTKKLLDEQEQEDEEASTGSHLKLIVDAFLQQLPNCVNRDLIDKAAMDFCMNMNTKANRKKLVRALFIVPRQRLDLLPFYARLVATLHPCMSDVAEDLCSMLRGDFRFHVRKKDQINIETKNKTVRFIGELTKFKMFTKNDTLHCLKMLLSDFSHHHIEMACTLLETCGRFLFRSPESHLRTSVLLEQMMRKKQAMHLDARYVTMVENAYYYCNPPPAEKTVKKKRPPLQEYVRKLLYKDLSKVTTEKVLRQMRKLPWQDQEVKDYVICCMINIWNVKYNSIHCVANLLAGLVLYQEDVGIHVVDGVLEDIRLGMEVNQPKFNQRRISSAKFLGELYNYRMVESAVIFRTLYSFTSFGVNPDGSPSSLDPPEHLFRIRLVCTILDTCGQYFDRGSSKRKLDCFLVYFQRYVWWKKSLEVWTKDHPFPIDIDYMISDTLELLRPKIKLCNSLEESIRQVQDLEREFLIKLGLVNDKDSKDSMTEGENLEEDEEEEEGGAETEEQSGNESEVNEPEEEEGSDNDDDEGEEEEEENTDYLTDSNKENETDEENTEVMIKGGGLKHVPCVEDEDFIQALDKMMLENLQQRSGESVKVHQLDVAIPLHLKSQLRKGPPLGGGEGEAESADTMPFVMLTRKGNKQQFKILNVPMSSQLAANHWNQQQAEQEERMRMKKLTLDINERQEQED
notes: UPF2, human, Q9HAU5, residues 121-1227; the host of this construct is told only in the Supplementary Material
For B4, in experiment [2], the Kd came out at 37 ± 5 nM.
